Assay results reported in the RNAGym collection of RNA variant scans (doi:10.1093/molbev/msab373).

B1: Azoarcus group I ribozyme (parent)
chain: GUGCCUUGCGCCGGGAAACCACGCAAGGGAUGGUGUCAAAUUCGGCGAAACCUAAGCGCCCGCCCGGGCGUAUGGCAACGCCGAGCCAAGCUUCGGCGCCUGCGCCGAUGAAGGUGUAGAGACUAGACGGCACCCACCUAAGGCAAACGCUAUGGUGAAGGCAUAGUCCAGGGAGUGGCGAAAGUCACACAAACCGG

Variants of: B1
Test: reverse-splicing fitness (ratio to wild type); higher = more active; in vitro selection; Mg2+ level not given
How it was run: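 An in vitro group I ribozyme library with randomized positions was T7-transcribed and gel-purified. In triplicate, 10 pmol RNA in EPPS pH 7.5 was reacted with 50 pmoles of a 30-nt RNA substrate for 1 h at 37 °C across several added MgCl2 levels (1–48 mM), then stopped with EDTA. Products were reverse transcribed from a substrate-complementary primer, PCR-amplified and sequenced (HiSeq 4000). Fitness is a variant's read proportion after selection over that before, normalised to wild type.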

Variant | reverse-splicing fitness
C82U A111C A145G C150G C169G | 0.00689
C82U A111C A145G C150G C169G U176A | 0.00912
C82U A111C A145G C150G C169G U176C | 0.0117
C82U A111C A145G C150G C169G U176G | 0.00571
C82U A111C A145G C150G C169U | 0.00879
C82U A111C A145G C150G C169U U176A | 0.0102
C82U A111C A145G C150G C169U U176C | 0.00994
C82U A111C A145G C150G C169U U176G | 0.0073
C82U A111C A145G C150G U176A | 0.0105
C82U A111C A145G C150G U176C | 0.0166
C82U A111C A145G C150G U176G | 0.00671
C82U A111C A145G C150U | 0.183
C82U A111C A145G C150U C169A | 0.00963
C82U A111C A145G C150U C169A U176A | 0.0141
C82U A111C A145G C150U C169A U176C | 0.013
C82U A111C A145G C150U C169A U176G | 0.00752
C82U A111C A145G C150U C169G | 0.00802
C82U A111C A145G C150U C169G U176A | 0.0107
C82U A111C A145G C150U C169G U176C | 0.0158
C82U A111C A145G C150U C169G U176G | 0.00674
C82U A111C A145G C150U C169U | 0.00955

Variant | reverse-splicing fitness
C82U A111C A145G C150U C169U U176A | 0.0144
C82U A111C A145G C150U C169U U176C | 0.0121
C82U A111C A145G C150U C169U U176G | 0.00645
C82U A111C A145G C150U U176A | 0.0576
C82U A111C A145G C150U U176C | 0.085
C82U A111C A145G C150U U176G | 0.0161
C82U A111C A145G C169A | 0.00937
C82U A111C A145G C169A U176A | 0.0231
C82U A111C A145G C169A U176C | 0.0298
C82U A111C A145G C169A U176G | 0.00741
C82U A111C A145G C169G | 0.00955
C82U A111C A145G C169G U176A | 0.0236
C82U A111C A145G C169G U176C | 0.0306
C82U A111C A145G C169G U176G | 0.00682
C82U A111C A145G C169U | 0.012
C82U A111C A145G C169U U176A | 0.0178
C82U A111C A145G C169U U176C | 0.0148
C82U A111C A145G C169U U176G | 0.00688
C82U A111C A145G U176A | 0.0861
C82U A111C A145G U176C | 0.113
C82U A111C A145G U176G | 0.0201

Variant | reverse-splicing fitness
C82U A111C A145U | 0.246
C82U A111C A145U C150A | 0.0231
C82U A111C A145U C150A C169A | 0.00884
C82U A111C A145U C150A C169A U176A | 0.0124
C82U A111C A145U C150A C169A U176C | 0.0128
C82U A111C A145U C150A C169A U176G | 0.00756
C82U A111C A145U C150A C169G | 0.00682
C82U A111C A145U C150A C169G U176A | 0.0138
C82U A111C A145U C150A C169G U176C | 0.0178
C82U A111C A145U C150A C169G U176G | 0.00796
C82U A111C A145U C150A C169U | 0.0103
C82U A111C A145U C150A C169U U176A | 0.0193
C82U A111C A145U C150A C169U U176C | 0.013
C82U A111C A145U C150A C169U U176G | 0.00805
C82U A111C A145U C150A U176A | 0.0153
C82U A111C A145U C150A U176C | 0.022
C82U A111C A145U C150A U176G | 0.00817
C82U A111C A145U C150G | 0.0215
C82U A111C A145U C150G C169A | 0.00756
C82U A111C A145U C150G C169A U176A | 0.00909
C82U A111C A145U C150G C169A U176C | 0.0103

Variant | reverse-splicing fitness
C82U A111C A145U C150G C169A U176G | 0.00824
C82U A111C A145U C150G C169G | 0.00721
C82U A111C A145U C150G C169G U176A | 0.00648
C82U A111C A145U C150G C169G U176C | 0.00532
C82U A111C A145U C150G C169G U176G | 0.00703
C82U A111C A145U C150G C169U | 0.00877
C82U A111C A145U C150G C169U U176A | 0.00807
C82U A111C A145U C150G C169U U176C | 0.0119
C82U A111C A145U C150G C169U U176G | 0.00671
C82U A111C A145U C150G U176A | 0.0108
C82U A111C A145U C150G U176C | 0.0156
C82U A111C A145U C150G U176G | 0.00446
C82U A111C A145U C150U | 0.148
C82U A111C A145U C150U C169A | 0.00889
C82U A111C A145U C150U C169A U176A | 0.0126
C82U A111C A145U C150U C169A U176C | 0.011
C82U A111C A145U C150U C169A U176G | 0.00765
C82U A111C A145U C150U C169G | 0.00836
C82U A111C A145U C150U C169G U176A | 0.0121
C82U A111C A145U C150U C169G U176C | 0.0165
C82U A111C A145U C150U C169G U176G | 0.00709
